Test results taken from PMC7383310.
Several values for one entry are separate records, joined by “and”; a condition that tells them apart may be missing. Equal values may be shown once.

Molecular target: recombinant human galectin-3 protein (human) (UniProt P17931)
Test: AlphaScreen or HTRF; indirect AlphaLISA saturation binding; His-tagged tau K18 (0-100 nM, analyte) on anti-His donor beads, untagged GAL-3 (1, 3 and 10 nM) captured by anti-GAL-3 antibody and anti-rabbit IgG acceptor beads; proteins incubated 60 min at 4°C, beads 60 min at RT in the dark; assay buffer in DPBS; Kd = concentration at 50% saturation

Chain of UniProt P17931 (P17931 whole entry): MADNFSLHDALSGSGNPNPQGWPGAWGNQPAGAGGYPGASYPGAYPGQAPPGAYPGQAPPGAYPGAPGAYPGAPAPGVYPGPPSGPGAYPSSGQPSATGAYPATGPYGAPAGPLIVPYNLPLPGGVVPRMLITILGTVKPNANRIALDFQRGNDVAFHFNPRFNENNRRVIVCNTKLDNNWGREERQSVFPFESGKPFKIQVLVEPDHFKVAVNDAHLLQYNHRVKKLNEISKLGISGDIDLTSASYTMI

Substance: His-tagged human tau K18 fragment (domain or fragment)
- Kd: 8.31 nM and 8.73 nM and 9.13 nM
